For one molecule, koff results are on record in PMC10925001 (2024).

The target in this test is covalently-linked IL-2/SD-01 complex (human, UniProt P60568 21-153). The test can be described thus: SPR. For orientation: Surface plasmon resonance follows binding to a sensor surface in real time, without labels.

B1: his-tagged human IL-2Rα (receptor)
chain: ELCDDDPPEIPHATFKAMAYKEGTMLNCECKRGFRRIKSGSLYMLCTGNSSHSSWDNQCQCTSSATRNTTKQVTPQPEEQKERKTTEMQSPMQPVDQASLPGHCREPPPWENEATERIYHFVVGQMVYYQCVQGYRALHRGPAESVCKMTHGKTRWTQPQLICTGEMETSQFPGEEKPQASPEGRPESETSCLVTTTDFQIQTEMAATMETSIFTTEYQ
As to B1, the koff came to 0.0048 s⁻¹.

Broadly, the koff is the rate constant with which the complex falls apart.
